The record followed here is article PMC3680494, “Genomics-Guided Analysis of NAD Recycling Yields Functional Elucidation of COG1058 as a New Family of Pyrophosphatases” (PLoS ONE, 2013).

What is called Km is the concentration of substrate that gives half-maximal velocity. What is called kcat is the number of substrate molecules converted per active site and unit of time at saturation.

Substrate in this data set: Nc1ncnc2c1ncn2[C@@H]1O[C@H](CO[P@](=O)(O)O[P@](=O)(O)OC[C@H]2O[C@@H](n3cnc4c(N)ncnc43)[C@H](O)[C@@H]2O)[C@@H](O)[C@H]1O
The experiment in a line: HPLC of mononucleotide formed, Michaelis-Menten fit. It is filed as biochemical, Agrobacterium fabrum. Particulars: pH 7.5 (100 mM TRIS/HCl), 1 mM CoCl2, 100 mM KCl, 37°C.

B1: AtCOG1058 (Agrobacterium fabrum str. C58) (protein)
chain: MSNPSSTSSVVTAAMLAIGDELLSGRTKDKNIGHLADVLTMSGIDLKEVRIVADEEESIVEALNALRSRYDYVFTSGGIGPTHDDITADAISAAFGLPCEHDAEALRLLGDMYRVREMEFTEARKRMARMPKGAAHIANPVSVAPGFVIGNVYVMAGVPQVFQAMLDNVMPTLRTGAKVMSQAVRSPYGEGDIGTPLTAIQKAHPETSIGSYPKYDGQRFSTEIVVRARDAGLLKAATEAVAAMIEAIGQEKQLAASKGDATA
notes: stand-alone COG1058 protein cloned from genomic DNA in pET100/D-TOPO; N-terminal His tag; E. coli BL21(DE3); HisTrap purified
B1: the Km amounted to 210 ± 22 µM and the kcat stood at 5.6 ± 0.7 s⁻¹.
